Four molecules from PMC2669960 (The EMBO Journal, 2009) can be followed below.

Like-named read-outs stand apart in the source and are kept apart here.

To fix the notation:
B1: His–Ska1 (N), tag cleaved (domain or fragment)
chain: MASSDLEQLCSHVNEKIGNIKKTLSLRNCGQEPTLKTVLNKIGDEIIVINELLNKLELEIQYQEQTNNSLKELCESLEEDYKDIEHLKENVPSHLPQVTVTQSCVKGSDLDPEEPIKVEEPEPVKKPPKE
B2: His–Ska3 (N), tag cleaved (domain or fragment)
chain: MDPIRSFCGKLRSLASTLDCETARLQRALDGEESDFEDYPMRILYDLHSEVQTLKDDVNILLDKARLENQEGIDFIKATKVLMEKNSMDIMKIREYFQKYGYSPRVKKNSVHEQEAINSDPELSNCENFQKTDVKDDLSDPPVASSCISEKSPRSP

What all share (experiment): co-purification
In experiment [1] the target is B2.
For experiment [2], the target named is T1, His–Ska1 (full length), tag cleaved (human, UniProt Q96BD8 1-255).
T1 sequence: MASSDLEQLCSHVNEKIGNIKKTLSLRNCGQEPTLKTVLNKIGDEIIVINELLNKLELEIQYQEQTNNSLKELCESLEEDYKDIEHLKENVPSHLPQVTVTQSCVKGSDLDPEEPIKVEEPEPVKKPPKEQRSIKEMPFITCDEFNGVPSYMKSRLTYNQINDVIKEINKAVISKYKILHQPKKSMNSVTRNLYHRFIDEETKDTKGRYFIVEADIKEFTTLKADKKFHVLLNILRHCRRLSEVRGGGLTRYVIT

Experiment [3] has as its target T2, GST–Ska1 (full length), tag cleaved (human, UniProt Q96BD8 1-255).
T2 sequence: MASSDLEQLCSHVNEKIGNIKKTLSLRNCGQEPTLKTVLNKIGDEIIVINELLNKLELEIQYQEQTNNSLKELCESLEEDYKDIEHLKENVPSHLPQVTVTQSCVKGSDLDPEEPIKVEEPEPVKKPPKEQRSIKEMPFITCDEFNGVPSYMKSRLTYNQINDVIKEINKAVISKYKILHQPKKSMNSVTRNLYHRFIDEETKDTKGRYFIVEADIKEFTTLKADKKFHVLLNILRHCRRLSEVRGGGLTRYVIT

For experiment [4], the target named is T2, GST–Ska1 (full length), tag cleaved. This is another data set of the same source.
For experiment [5], the target named is B2. This is another data set of the same source.
In experiment [6] the target is B1.
Experiment [7] addresses T1, His–Ska1 (full length), tag cleaved. The source holds these as a separate data set.

On to B1, for which, in experiment [1], the binding result is “binds”.

For the molecule B2, the binding result in experiment [2] and in experiment [3] was “binds” each time.

B3: untagged Ska2 (natural protein)
chain: MEAEVDKLELMFQKAESDLDYIQYRLEYEIKTNHPDSASEKNPVTLLKELSVIKSRYQTLYARFKPVAVEQKESKSRICATVKKTMNMIQKLQKQTDLELSPLTKEEKTAAEQFKFHMPDL
For the molecule B3, the binding result in experiment [4] is “binds”.

B4: GST–Ska2 (full length), tag cleaved (natural protein)
chain: MEAEVDKLELMFQKAESDLDYIQYRLEYEIKTNHPDSASEKNPVTLLKELSVIKSRYQTLYARFKPVAVEQKESKSRICATVKKTMNMIQKLQKQTDLELSPLTKEEKTAAEQFKFHMPDL
Take B4: the binding result in experiment [5], in experiment [6] and in experiment [7] was “binds” in each case.
